Source: patent publication EP2014310A2 (Dyax Corporation, dated 2009)
Read-outs that look alike come from different tables or passages of the source. Bridge positions count the residues as written; N and C are the ends. Side chains are listed from the residue outwards. I, II: the chains in the order shown. * marks the point of attachment. Biotin = O=C1N[C@H]2[C@H](CS[C@H]2CCCCC(=O)*)N1; ivDde = CC(C)CC(=C1C(=O)CC(C)(C)CC1=O)*; AEEA = NCCOCCOCC(=O)O

Tests used:
[1] = biological target: KDR on transiently KDR-transfected 293H cells (human) (UniProt P35968); assay: neutravidin-HRP complexes, KDR minus mock 293H cells
[2] = biological target: T1, human KDR-Fc fusion (R&D Systems #357-KD-050) (human, UniProt P35968 20-764); assay: fluorescence anisotropy, fluorescein-labeled peptide
T1 construct: bought

[3] = biological target: KDR on human umbilical vein endothelial cells (HUVECs) (human, UniProt P35968 20-1356); assay: cell-based or functional assay
[4] = biological target: T1, human KDR-Fc fusion (R&D Systems …); assay: Biacore, KDR-Fc on CM5 chip, unlabeled peptide
[5] = biological target: T1, human KDR-Fc fusion (R&D Systems …); assay: phage binding screen on KDR-Fc; class legend in paragraph 246
[6] = biological target: T1, human KDR-Fc fusion (R&D Systems …); assay: as above; remark: listed apart in the source
[7] = biological target: T2, KDR/VEGF complex (KDR-Fc mixed or saturated with VEGF) (human, UniProt P35968 20-764; P15692 27-191); assay: fluorescence anisotropy, fluorescein-labeled peptide, KDR-Fc with two fold excess VEGF
T2 construct: anisotropy: two fold molar excess of VEGF mixed with KDR-Fc; Biacore: KDR-Fc chip saturated with VEGF; also called KDR:VEGF165 complex

[8] = biological target: VEGF165 (Peprotech #100-20) (UniProt P15692-4 27-191); assay: fluorescence anisotropy, fluorescein-labeled peptide
Sequence of VEGF165 (Peprotech #100-20) (P15692 other isoform, or with tags, fused parts or gaps limits assumed): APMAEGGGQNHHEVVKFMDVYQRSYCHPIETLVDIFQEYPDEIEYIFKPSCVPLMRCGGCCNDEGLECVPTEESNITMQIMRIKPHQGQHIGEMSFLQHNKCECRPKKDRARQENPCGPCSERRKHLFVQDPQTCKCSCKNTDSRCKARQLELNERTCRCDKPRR

Sequence of KDR on transiently KDR-transfected 293H cells (human) (P35968 20-1356): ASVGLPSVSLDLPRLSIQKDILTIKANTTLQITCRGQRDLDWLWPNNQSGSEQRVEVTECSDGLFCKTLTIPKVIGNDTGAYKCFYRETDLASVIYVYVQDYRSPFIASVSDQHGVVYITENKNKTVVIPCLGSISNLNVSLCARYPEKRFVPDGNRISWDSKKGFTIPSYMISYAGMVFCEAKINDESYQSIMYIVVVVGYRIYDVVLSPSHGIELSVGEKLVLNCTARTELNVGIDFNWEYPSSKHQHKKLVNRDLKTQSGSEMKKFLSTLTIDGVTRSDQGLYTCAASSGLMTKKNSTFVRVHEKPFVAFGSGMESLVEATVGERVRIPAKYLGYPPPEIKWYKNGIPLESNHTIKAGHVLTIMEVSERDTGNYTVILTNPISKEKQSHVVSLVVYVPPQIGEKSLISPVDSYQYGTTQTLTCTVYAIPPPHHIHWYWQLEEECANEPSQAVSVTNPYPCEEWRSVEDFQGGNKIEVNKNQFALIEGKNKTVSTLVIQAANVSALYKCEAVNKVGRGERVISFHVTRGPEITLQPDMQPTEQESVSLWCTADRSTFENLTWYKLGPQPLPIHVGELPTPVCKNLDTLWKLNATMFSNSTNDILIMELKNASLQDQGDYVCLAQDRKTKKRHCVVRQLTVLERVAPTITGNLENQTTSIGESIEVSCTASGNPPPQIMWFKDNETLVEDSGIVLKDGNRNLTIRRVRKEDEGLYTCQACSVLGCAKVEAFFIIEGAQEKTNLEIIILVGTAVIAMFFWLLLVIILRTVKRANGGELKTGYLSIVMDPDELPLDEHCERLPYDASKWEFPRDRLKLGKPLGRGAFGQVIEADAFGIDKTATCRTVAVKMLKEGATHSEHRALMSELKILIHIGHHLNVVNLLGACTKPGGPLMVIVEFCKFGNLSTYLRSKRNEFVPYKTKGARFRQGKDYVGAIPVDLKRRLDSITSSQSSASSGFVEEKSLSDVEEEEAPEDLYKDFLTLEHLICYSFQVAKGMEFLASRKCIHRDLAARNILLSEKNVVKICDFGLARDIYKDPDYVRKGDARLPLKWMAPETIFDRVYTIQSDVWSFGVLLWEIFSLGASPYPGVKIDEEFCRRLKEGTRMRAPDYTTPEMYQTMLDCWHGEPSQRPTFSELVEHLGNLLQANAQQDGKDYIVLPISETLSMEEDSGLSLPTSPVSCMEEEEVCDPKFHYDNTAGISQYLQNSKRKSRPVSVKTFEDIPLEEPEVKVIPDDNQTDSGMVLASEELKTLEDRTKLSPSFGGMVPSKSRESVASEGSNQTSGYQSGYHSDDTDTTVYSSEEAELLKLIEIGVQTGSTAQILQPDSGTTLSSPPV
Sequence of KDR on human umbilical vein endothelial cells (HUVECs) (P35968 20-1356): as above
T1 sequence (P35968 20-764): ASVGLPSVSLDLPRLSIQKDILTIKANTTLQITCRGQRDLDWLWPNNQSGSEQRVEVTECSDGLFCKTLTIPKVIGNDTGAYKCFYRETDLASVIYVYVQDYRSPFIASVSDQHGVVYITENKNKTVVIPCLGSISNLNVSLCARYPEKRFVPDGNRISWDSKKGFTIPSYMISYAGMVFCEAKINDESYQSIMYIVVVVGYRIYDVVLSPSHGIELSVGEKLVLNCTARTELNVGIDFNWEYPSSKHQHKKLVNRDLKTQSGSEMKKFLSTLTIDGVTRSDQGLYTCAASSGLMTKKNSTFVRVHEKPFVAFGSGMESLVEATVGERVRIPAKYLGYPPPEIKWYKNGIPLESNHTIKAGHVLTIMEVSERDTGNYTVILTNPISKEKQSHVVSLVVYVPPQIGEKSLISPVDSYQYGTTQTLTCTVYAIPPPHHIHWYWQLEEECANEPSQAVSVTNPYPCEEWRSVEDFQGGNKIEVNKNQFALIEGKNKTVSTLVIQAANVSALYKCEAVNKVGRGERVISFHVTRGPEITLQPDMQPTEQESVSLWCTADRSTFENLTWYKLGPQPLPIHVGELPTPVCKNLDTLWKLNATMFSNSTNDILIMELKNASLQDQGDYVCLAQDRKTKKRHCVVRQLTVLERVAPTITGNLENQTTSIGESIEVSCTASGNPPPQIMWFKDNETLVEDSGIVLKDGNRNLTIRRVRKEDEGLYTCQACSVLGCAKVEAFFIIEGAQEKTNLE
T2 sequence (P35968 20-764, chain 1 of 2): as the sequence (P35968 20-764) above
T2 sequence (P15692 other isoform, or with tags, fused parts or gaps, chain 2 of 2): as the sequence (P15692 other isoform, or with tags, fused parts or gaps limits assumed) above

**Q.** How did the ratio of specific binding to that of monomer (Tetramer) [1] turn out when Ac-AQDWYYDEILSMADQLRHAFLSGGGGGK([AEEA-AEEA-Biotin])-NH2 (peptide, part only; not given: neutravidin-HRP, not shown: large carriers, also: tetrameric complex with neutravidin-HRP) [tetrameric complex of biotinylated SEQ ID NO:356 (JJ spacer) with neutravidin-HRP] was run?
**A.** 16

**Q.** Which ratio of specific binding to that of monomer (Trimer) [1] does the source give for Ac-AQDWYYDEILSMADQLRHAFLSGGGGGK([AEEA-AEEA-Biotin])-NH2 (peptide, part only; not given: control peptide and neutravidin-HRP, not shown: large carriers, also: neutravidin-HRP complex with biotinylated control peptide (trimer)) [neutravidin-HRP complex of SEQ ID NO:356 and control peptide, trimer] here?
**A.** 5.7

**Q.** With Ac-AQDWYYDEILSMADQLRHAFLSGGGGGK([AEEA-AEEA-Biotin])-NH2 (peptide, part only; not given: control peptide and neutravidin-HRP, not shown: large carriers, also: neutravidin-HRP complex with biotinylated control peptide (dimer)) [neutravidin-HRP complex of SEQ ID NO:356 and control peptide, dimer] as the binder, how does the ratio of specific binding to that of monomer (Dimer) [1] read?
**A.** 2.3

**Q.** How did the Kd [2] turn out when Ac-AQGDYVYWEIIELTGATDHTPPGGK-NH2 (not fully specified) [SEQ ID NO:307] was run?
**A.** 180 nM

**Q.** What about the “VEGF-induced KDR phosphorylation in HUVECs” value [3] of the same binder?
**A.** ≥ 50 % inhibition at 10 µM

**Q.** With Ac-AGWIECYHPDGICYHFGTGGGK-NH2 (disulfide 6-13 (inferred); not fully specified) [SEQ ID NO:269] as the binder, how does the Kd [2] read?
**A.** 320 nM

**Q.** What about the “VEGF-induced KDR phosphorylation in HUVECs” value [3] of the same binder?
**A.** ≥ 50 % inhibition at 10 µM

**Q.** What about the Kd [4] of the same binder?
**A.** 320 nM

**Q.** For VCWEDSWGGEVCFRYDPGGGK [SEQ ID NO:337 monomeric free peptide (VCWEDSWGGEVCFRYDPGGGK)], which “IC50, receptor activation assay” value [3] is on record?
**A.** 1 µM

**Q.** With Ac-AGWLECYAEFGHCYNFGTGGGK-NH2 (disulfide 6-13 (inferred); not fully specified) [SEQ ID NO:267] as the binder, how does the “VEGF-induced KDR phosphorylation in HUVECs” value [3] read?
**A.** ≥ 50 % inhibition at 10 µM

B1: dimer 25 (D25) (peptide)
peptide 1: Ac-AGPTWCEDDWYYCWLFGTGGGK-NH2
peptide 2: Ac-GDSRVCWEDSWGGEVCFRYDPGGGK-NH2
modifications: disulfide I:6-I:13, II:6-II:16 (inferred); not fully specified (some residues, bridges); printed as Ac-AGPTWCEDDWYYCWLFGTGGGK{Ac-GDSRVCWEDSWGGEVCFRYDPGGGK[JJ-Glut-NH(CH_2)4-(S)-CH(NH_2)C(=O)-]-NH_2}-NH_2; also: heterodimer, chain 2 C-terminal Lys joined to linker
**Q.** For B1, which “IC50, VEGF-induced migration of HUVECs” value [3] is on record?
**A.** 5 nM

B2: dimer 17 (D17) (peptide)
peptide 1: AQDWYYDEILGRGGRGGRGGK
peptide 2: VCWEDSWGGEVCFRYDPGGGK
modifications: not fully specified; N-terminal acetyl; C-terminal Lys(JJ-Glut)-NH2; N-terminal acetyl; contains J (8-amino-3,6-dioxaoctanoyl); C-terminal Lys joined to linker K
**Q.** How did the “IC50, VEGF-induced migration of HUVECs” value [3] turn out when B2 was run?
**A.** ~250 nM

**Q.** With Ac-GDWWECK(ivDde)REEYRNTTWCAWADPGGGK-NH2 (disulfide 6-17 (inferred)) [Ac-GDWWECK(ivDde)REEYRNTTWCAWADPGGGK-NH2 (SEQ ID NO:366 having a blocked K)] as the binder, how does the “VEGF-induced KDR phosphorylation in HUVECs” value [3] read?
**A.** ≥ 50 % inhibition at 10 µM

**Q.** How did the Kd [2] turn out when Ac-GDPDTCTMWGDSGRWYCFPADPGGGK-NH2 (disulfide 6-17 (inferred); not fully specified) [SEQ ID NO:301] was run?
**A.** 490 nM

**Q.** What about the “VEGF-induced KDR phosphorylation in HUVECs” value [3] of the same binder?
**A.** ≥ 50 % inhibition at 10 µM

**Q.** What about the Kd [4] of the same binder?
**A.** 260 nM

**Q.** What does the source list for Ac-AQEPEGYAYWEVITLYHEEDGDGGK-NH2 (not fully specified) [SEQ ID NO:305]?
**A.** Kd [2]: 270 nM; VEGF-induced KDR phosphorylation in HUVECs [3]: ≥ 50 % inhibition at 10 µM; Kd [4]: 730 nM

**Q.** Which Kd [2] does the source give for Ac-AQAFPRFGGDDYWIQQYLRYTDGGK-NH2 (not fully specified) [SEQ ID NO:306] here?
**A.** 530 nM

**Q.** What about the “VEGF-induced KDR phosphorylation in HUVECs” value [3] of the same binder?
**A.** ≥ 50 % inhibition at 10 µM

**Q.** What about the Kd [4] of the same binder?
**A.** 250 nM

**Q.** Does GVECNHMGLCVSW [phage isolate GVECNHMGLCVSW] bind [5]?
**A.** binds

**Q.** Does GITCDELGRCVHW [phage isolate GITCDELGRCVHW] bind [5]?
**A.** binds

**Q.** Does WIQCNHQGQCFHG [phage isolate WIQCNHQGQCFHG] bind [5]?
**A.** binds

**Q.** Does WIECNKDGKCWHY [phage isolate WIECNKDGKCWHY] bind [5]?
**A.** binds

**Q.** Does WVECNHKGLCREY [phage isolate WVECNHKGLCREY] bind [5]?
**A.** binds

**Q.** Does WYWCEFYGVCSEE [phage isolate WYWCEFYGVCSEE] bind [5]?
**A.** binds

**Q.** Does IDFCKGMAPWLCADM [phage isolate IDFCKGMAPWLCADM] bind [6]?
**A.** binds

**Q.** Does PWTCWLEDHLACAML [phage isolate PWTCWLEDHLACAML] bind [6]?
**A.** binds

**Q.** Does MPWCSEVTWGWCKLN [phage isolate MPWCSEVTWGWCKLN] bind [6]?
**A.** binds

**Q.** Does RGPCSGQPWHLCYYQ [phage isolate RGPCSGQPWHLCYYQ] bind [6]?
**A.** binds

**Q.** For Ac-GDDHMCRSPDYQDHVFCMYWDPGGGK-NH2 (disulfide 6-17 (inferred); not fully specified) [SEQ ID NO:295], which Kd [2] is on record?
**A.** 480 nM

**Q.** And the Kd [4]?
**A.** 140 nM

**Q.** Which Kd [2] does the source give for Ac-GDGSWCEMRQDVGKWNCFSDDPGGGK-NH2 (disulfide 6-17 (inferred); not fully specified) [SEQ ID NO:299] here?
**A.** 620 nM

**Q.** What about the Kd [4] of the same binder?
**A.** 180 nM

**Q.** How did the Kd [2] turn out when Ac-GDGWACAKWPWGGEICQPSDPGGGK-NH2 (disulfide 6-16 (inferred); not fully specified) [SEQ ID NO:300] was run?
**A.** 1000 nM

**Q.** And the Kd [4]?
**A.** 1500 nM

**Q.** For Ac-GDNWECGWSNMFQKEFCARPDPGGGK-NH2 (disulfide 6-17 (inferred); not fully specified) [SEQ ID NO:303], which Kd [2] is on record?
**A.** 210 nM

**Q.** What about the Kd [4] of the same binder?
**A.** 990 nM

**Q.** Which results are given for Ac-AQRGDYQEQYWHQQLVEQLKLLGGK-NH2 (not fully specified) [SEQ ID NO:308]?
**A.** Kd [2]: 310 nM; Kd [4]: 5300 nM

**Q.** Ac-AGIDFCKGMAPWLCADMGTGGGK-NH2 (disulfide 6-14 (inferred); not fully specified) [SEQ ID NO:311] was tested. Which Kd [2] did it give?
**A.** 730 nM

**Q.** And the Kd [4]?
**A.** 180 nM

**Q.** With Ac-GSDHHCYLHNGQWICYPFAPGGGK-NH2 (disulfide 6-15 (inferred); not fully specified) [SEQ ID NO:314] as the binder, how does the Kd [2] read?
**A.** 260 nM

**Q.** And the Kd [4]?
**A.** 150 nM

B3: SEQ ID NO:324 (peptide)
peptide: Ac-AGGHPCKGMLPHTCWYEGTGGGK-NH2
modifications: disulfide 6-14 (inferred); not fully specified; also: C-terminal Lys fluorescein-labeled in some assay forms
**Q.** Which Kd [7] does the source give for B3 here?
**A.** 3.3 µM

**Q.** Does B3 bind [8]?
**A.** no binding
